Test: yeast display, Sf9 membrane polyspecificity reagent, FACS + sequencing; frameworks hold sequencing errors
In short: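 A nanobody's polyreactivity label depends on the gate it was sorted from. Yeast display cells were stained with 10% biotinylated, detergent-solubilized Sf9 membrane reagent for 1 hour at 4 °C, enriched on streptavidin microbeads and sorted by FACS. The low and high (top ~1%) gates were set on anti-HA fluorescence for expression and streptavidin fluorescence for reagent binding.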

Row | Sequence | polyreactivity (PSR sort gate)
1 | QVQLQESDGGLVQAGGSLRLSCAASGSISPQYYMGWYRQEPGKEREFVAISKGTTTYYADSVKGRLTISRVNAKNTVYLQMNSLKPEDTAVYCCAAGRWLQKVHAYWDQGTQVTVSS | low polyreactivity
2 | QVQLQESDGGLVQAGGSLRLSCAASGSISPQYYMGWYRQEPGKEREYVAISKGTTTYYADSVKGRLTISRVNAKNTVYLQMNRLKPEDTAVYCCAAGRWLQKVHAYWDQGTQVTVSS | low polyreactivity
3 | QVQLQESGAGLEQAGGSLRMSCAASGYSSDIGTMGWYRQAPGKEREFVATIVVGSTTNYADSVKGRFTISRDNAKNTVYLQPESGRYRGVLLRGWLLAVGKFTYWGQGTQETVSS | low polyreactivity
4 | QVQLQESGAGLVQAGGSLRLTCAASGSIFLFYTMGWYRQAPVKEREFVAGITLGTTTYNADSVKGRFTISRDNVKNTVYLQMNSLKPEDTAVYYCAVAVGHYTEFWYWGQGTQVTMSS | high polyreactivity
5 | QVQLQESGAGPVLAGGSLRLSCAASGTIYVRLDMGWYRQAPGKEREFVATIGSGSSTYYADSVKGSFTISRDNVKNTVYLQMNSLNPEVTAVYYCAVSAAEQSRHYYWAQGTQVTVSS | low polyreactivity
6 | QVQLQESGCGLVQAGGCLSCTASGTIFGQGDMGWYRQAPGKERELVATINDGASTYYADSVKGRFTISRDKAKNTVYLQMNSLKPEDTAVYYCAAVIRPRYYQVRPRYDYWGQGTQVTVSS | low polyreactivity
7 | QVQLQESGCGLVQAGGSLRLSCAASGNIFEADIMGWYHQAQGKERELVASITDGGSTNYADSVKGRFTINRDNAKNNVYLQMNSLKPEDTAVYSCAAIAYPDIPTYFDYDSDYFYWGQGTQVTVSS | high polyreactivity
8 | QVQLQESGDGLLQAVGSLRLSCAASGYISGYYYMGWYRQAPGKERELVAGIDAFGSSTNYADCVKGRFTISRDNGKNTVYLQMNSLKPEDTAVYYCAARPDGDRLFSYWGQGTQVTVSS | low polyreactivity
9 | QVQLQESGDGLVQAVGSLRLSCAASGYSSGYYYMGWYRQAPGKERELVAGIDAFGISTNYADCVKGRFTISRDNAKNTVYLQMTSLKPEDTAVYYCAARPDGDRLFSYWGQGTQVTVSI | low polyreactivity
10 | QVQLQESGGGLAQAVGSLRLSCAASGNIFDPDIMGSYRQAPAKERELVGSITHGGSTNYVDSVKGRFTISRDNATNTVHLQMNRLKPVDTGVYYCAAIGYPDIPSYFDYDSDFFNWGHGTQVTVSS | high polyreactivity
11 | QVQLQESGGGLEKACGSLRLSCAASVNISPRDAMCWYRQAPGEERDLVASNAYSAITYYADGVKGRYTISRDNAKNTVYLHMNSLKPEDTEVYYCAVYQFPYPVFPAYCGQGTQVTVSS | low polyreactivity
12 | QVQLQESGGGLEQAGGSLRMSCAASGTIFSEANMGWYRQAPGKERELVATIGQGSTTNYADSVKGRFTISRDNAKNTVYLQMNSLKPEETPVYYCAVVTVDPVGFVYWGQGTQVTVSS | low polyreactivity
13 | QVQLQESGGGLMQAGGSQRLSCAASGSISSYSDMGWYRQAPGKEREFVAGIGYGTTTNYADSVKGRFTTSRDNAKNTVYLQMISMKPEDTAVYYCAAYQGNGYEFYYWGQGTQVTVRS | low polyreactivity
14 | QVQLQESGGGLMQAGGSQRLSCAASGSISYYSDRGWYRQAPGKEREFVAGIGYGTTTNYADSVKGRFTTSRDNAKNTVYLQMICMKPEDTAVYYCAAYQGNGYEFYYWGQGTQVTVRS | low polyreactivity
15 | QVQLQESGGGLVHAAGILRLSCAACGNIFPSAVMGWYRQALGKEREFVATLNSGSNTYYADSVKGRFTIRRDNAKNTVYLQMNSLKLEDTGVYYCAAYFNLPAWHTYWGQGTQVTVSS | low polyreactivity
16 | QVQLQESGGGLVHACGSLRPSCAASGSISDSWRMSWYRQAPGTEREFVAGITWGGTTNYADSVKGRFTISRDNAKNTVYLQMNSLKPEDTAVYYCNARQRTYYRTHRIRHKGNGYWGQGTQVTVSS | low polyreactivity
17 | QVQLQESGGGLVHAGGSLRLSCAASGTISFINMMGWNRQAPGRERELVASINFGANTNYADSVKGRFTISRDNAKNTVYVQMNSLKPEDTAVYYCAVYDFDAYTLDYWGQGTLVTVSS | high polyreactivity
18 | QVQLQESGGGLVHAGGSLRLSCAASGTISFINMMGWYRQAAGRERELVASINFGANTNYADSVKGRFTISRDNAKNTVYLQMNSLKPEDTAVYYCAVYDFDAYTLYYWGQGTLVTVSS | high polyreactivity
19 | QVQLQESGGGLVHPGGSLRLSCAASCSISHYIFMGWYRQAPGKEREFVAGIGYGGTTNYADSVKGRFTISRDNAKNTVYLQMNSLKPEDTAMYYCAAREATEFYLYYWGQGTQVTVSS | low polyreactivity
20 | QVQLQESGGGLVKAGGSLRLSCAASGNISNHNDMGWYRQAPGKEREFVAGITAGGNTNYADSVKGRFTISRDNAKNTVYLQMNSLKPEDTAVYYCAAYPDYAKSYGYWGQGTQATVSS | low polyreactivity
21 | QVQLQESGGGLVKAGGSLRLSCAASGNISPRDAMGWYRQAPGEERDLVASNAYSAITYYADGVKGRYSISRDNAKNTVYLQMNSLKPEDTEVYYCAVYQFTYPVFPAYWGQGTQVSVSS | low polyreactivity
22 | QVQLQESGGGLVLAGGSLRLSCAASGSIFLFYTMGWYRQAPVKEREFVAGITLRTPTYNADSVKGRFTISRDNVKNTVYLQMNSLKPEDTAVYYCAVAVGHYTEIWYWGQGTQVTMSS | high polyreactivity
23 | QVQLQESGGGLVQAGDSQRLSCAASGNIFRFTDMGWYRKAPGKERELVAAINAGSTTYYADSVKGRFTISRDNAKNTVYLQMNSLKPEDTAVYYCAVYYLGSGTFGYWGQGAQVTVSS | high polyreactivity
24 | QVQLQESGGGLVQAGGCLSCTASGTIFGQGDMGWYRQAPGKERELVATINDGASTYYADSVKGRFTISRDKAKNTVNLQKNSLKPDDTAVYYCAVFTDITTYFGYWGQGTQVTVSS | low polyreactivity
25 | QVQLQESGGGLVQAGGGLRLSCAASGTISGPHVMGWYRQAPGEEREFVAAINVGANTYYADNVKGRFTISRDNAKNTVYLQMNSLKPEDTAVYYCAAVYYGDIGHEYWGQGTQVTVSC | low polyreactivity
26 | QVQLQESGGGLVQAGGGLRLSCAASGTISGPHVMGWYRQAPGKEREFVAAINVGANTYYADNVKGRFTISRDNAINTVYLQMNSLKPEDTAVYYCAAVYYGDIGHEYWGQGTQVTVSC | low polyreactivity
27 | QVQLQESGGGLVQAGGNPRLSCAASGNSSWSAHMGWYRQTPGKERELVASNTAGTSTNYADSVKGRFTISRDNAKNTVYLQMNSLKPEDTAVSYCATLGYFSASRTDYDYWGQGTQVTVSS | low polyreactivity
28 | QVQLQESGGGLVQAGGRLRLSCAASGNIFEADIMGWYNKAQGKERELVASITDGGSTNYADSVKGRFTINRYNAKNNVYLQMNSLKPEDTAVYYCAAIAYPDIPTYFDYDSDYFYWGQGTQVTVSS | high polyreactivity
29 | QVQLQESGGGLVQAGGSLGCAASGNISTRSEMGWYRQAPGNEREFVATINSGGLTNYADSVKGRFTISRDNAKNTVNLRMNSLKPEDTAVYYRAVYGYFSDPYDYWGQGTQVTVSS | low polyreactivity
30 | QVQLQESGGGLVQAGGSLLSCAASGTISYYREMGWYRQAPGKERELVAGIGVGTITYYADSVKGRFTISRDNAKNTVYLQMNSLKPEDTAVYYCAALIDGNDSHAYWGQGTQVTVSS | low polyreactivity

Reference: the nanobody polyreactivity screen of Harvey et al. (2022)
